The record followed here is patent publication US20140314667A1, “METHODS OF TREATING EPIDERMAL GROWTH FACTOR DELETION MUTANT VIII RELATED DISORDERS” (AMGEN INC., priority 2011, published 2014).

Assay [1] concerns the target T1, EGFRvIII expressing cells (H1477) (Homo sapiens, UniProt P00533, DELINS30-297G).
T1 construct: host or cells: H1477 cells
As to the kind of experiment: Selectivity for EGFRvIII expressing cells compared to ABX-EGF. The assay is classed as binding.

A further assay addresses T2, EGFRvIII-peptide-OVA (Homo sapiens, UniProt P00533, DELINS30-297G).
T2 construct: 207 μg of EGFRvIII PEP3 was reduced; host or cells: synthetic peptide, chemical conjugation
As to the kind of experiment: B-cell culture supernatant ELISA on EGFRvIII-peptide-OVA. The assay is classed as binding. As for the experimental part: B-cells from the above-discussed animals were harvested and cultured. Those secreting EGFRvIII-peptide specific antibodies were isolated as described in Babcook et al., Proc. Natl. Acad. Sci. USA, 93:7843-7848 (1996). ELISA was used to identify primary EGFRvIII-peptide-OVA-specific wells. About 5 million B-cells were cultured from XenoMouse animals in 24596 well plates at 500 or 150 or 50 cells/well, and were screened on EGFRvIII-peptide-OVA to identify the antigen-specific wells.
(§1) 244 of EGFRvIII-peptide-OVA-Elisa positive wells of OD >0.5 were screened again on EGFRvIII-peptide-OVA and on OVA to confirm that they were EGFRvIII-peptide specific.
Background: An ELISA detects its analyte on a solid surface through an enzyme-linked reagent.

Assay [2] deals with T3, NR6 Wt cells (NR6 cells expressing EGF receptor) (Homo sapiens, UniProt P00533).
T3 construct: expressed in transfected cells; host or cells: NR6 cells (NR6 Wt)
The experiment in a line: Native cell binding assay by FMAT, NR6 Wt cells. The source says:
The same type of native binding assay was done on NR6 Wt cells (NR6 cells expressing EGF receptor) (See Batra et al. Epidermal growth factor ligand-independent, unregulated, cell-transforming potential of a naturally occurring human mutant EGFRvIII gene. Cell Growth Differ. 6(10):1251-9 (1995)) to eliminate the binding is due to binding to Wt receptor (Table 3.8). ABX-EGF was used as a positive control and PK 16.3.1 at the same concentration was used as a negative control antibody. 3 out the 134 NR6 M binders were binding strongly to NR6 Wt cells. 190 of the 244 wells bound EGFRvIII peptide in Elisa were also bound to the native form on cells.
In this example, binding of anti-EGFRvIII antibodies to NR6 M cells was measured. Specifically, unquantitated supernatants of XenoMax derived IgG1 recombinant antibodies were assayed for their ability to bind to NR6 M and NR6 WT cells. Cells were seeded at 10000/well and incubated overnight at 37 C in FMAT 96 well plates. Media was removed and 40 μl mini lipo supernatant (titrated down) was added, the cells were incubated on ice for 1 hr. […] The PK 16.3.1 antibody was used as a negative control. The cells were washed with Cold PBS, secondary antibody was added (SS Alexa antihuman IgG Fc) at 1 μg/ml, 40 μl/well and incubated on ice for 1 hr. The cells were then washed with Cold PBS and fixed and read by FMAT. All antibodies were tested for specificity for binding by counter screening against NR6 WT cells.

The target in assay [3] is T4, EGFRvIII receptor in NR6 M cells (Homo sapiens, UniProt P00533, DELINS30-297G).
T4 construct: NR6 M cells stably expressing full length EGFRvIII; expressed in transfected cells; host or cells: NR6 cells (NR6 M)
The experiment in a line: Internalization of EGFRvIII receptor by recombinant mAbs (FACS). The assay is classed as cell-based. To be noted: 0.25 μg/ml antibody, 1 hr. On the procedure:
XenoMax derived IgG1 recombinant antibodies were expressed, purified and quantitated as described previously. Antibodies were further assayed for their ability to internalize the EGFRvIII receptor in NR6 M cells. […] The cells were washed with cold 10% FCS in PBS and secondary antibody (SS Alexa antihuman IgG Fab) at 3 μg/ml Fab was added and incubated for 7 mins on ice. The cells were washed with cold 10% FCS in PBS once and then resuspended in cold media. Next, two sets of the triplicate were incubated at 37° C. and the remaining set was incubated at 4° C. for 1 hr. After that the cells incubated at 4° C. and one set of the cells incubated at 37° C. were treated with glutathione (as previously mentioned) for 1 hr on ice. Then the cells were washed and resuspended in 100 μl of cold 1% FCS in PBS and analyzed by FACS. The % internalization was calculated from the geometric mean obtained from the FACS analysis [(mean at 37° C. with glutathione−mean at 4° C. with glutathione)/(mean at 37° C. without glutathione−mean at 4 C with glutathione)].

The target in another assay is T5, OVA (Gallus gallus, UniProt P01012).
T5 sequence (P01012 1-386): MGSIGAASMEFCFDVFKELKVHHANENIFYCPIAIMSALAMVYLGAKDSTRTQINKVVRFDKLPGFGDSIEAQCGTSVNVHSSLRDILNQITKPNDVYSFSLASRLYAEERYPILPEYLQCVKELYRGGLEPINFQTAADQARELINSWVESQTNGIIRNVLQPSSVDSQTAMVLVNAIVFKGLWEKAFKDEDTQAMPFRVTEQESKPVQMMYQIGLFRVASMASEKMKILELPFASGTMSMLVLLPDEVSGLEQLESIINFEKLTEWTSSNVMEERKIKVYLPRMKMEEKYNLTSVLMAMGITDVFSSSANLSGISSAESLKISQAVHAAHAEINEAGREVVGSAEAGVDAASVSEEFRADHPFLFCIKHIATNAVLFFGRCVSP
As to the kind of experiment: B-cell culture supernatant ELISA on OVA (specificity control). Format: binding. To be noted: Table 3.8.
Description: as §1

The target of assay [4] is T6, EGFRvIII receptor on NR6 M cells (Homo sapiens, UniProt P00533, DELINS30-297G).
T6 construct: NR6 M cells stably expressing full length EGFRvIII; expressed in transfected cells; host or cells: NR6 cells (NR6 M)
The experiment in a line: Internalization assay (FMAT, glutathione) of B cell culture supernatants. The assay is classed as cell-based. On the procedure:
The top 60 native binding B cell culture supernatants were further assayed for their ability to internalize the receptor. NR6 M cells were seeded at 8000 cells/well into 96 well FMAT plates and incubated overnight. Media was removed and 10-15 μl B-Cell culture supernatant in a total volume of 30 μl media, in duplicate was added. Next, 15 μl of secondary antibody (SS Alexa 647 anti-human IgG Fab at 1.5 μg/ml final concentration) was added and the mixture was incubated on ice for 1 hr. An irrelevant B-Cell Culture supernatant was used to see the effect of the culture media. Human anti-EGFRvIII mAb 13.2.1 was used as a positive control starting at 1 μg/ml (final concentration) and negative control was PK 16.3.1 (human anti-KLH IgG2 antibody) at the same concentration. After incubation, the cells were washed with cold PBS, 50 μl media was added to all of the wells, one of the duplicates were incubated at 37° C. for 30 mins while the other duplicate remained on ice. After the incubations media was removed, 100 ul of cold 50 mM glutathione was added to the set incubated at 37° C. and 100 μl of cold media added to the other set, both sets were then left on ice for 1 hr. The cells were then washed with 100 μl cold PBS and then fixed with 1% paraformaldehyde and read in FMAT. The results were expressed as % internalized, calculated as total fluorescence in the presence of glutathione/total fluorescence in the absence of glutathione×100.

Assay [5] deals with T7, native form of EGFRvIII stably expressed on NR6 cells (NR6 M cells) (Homo sapiens, UniProt P00533, DELINS30-297G).
T7 construct: NR6 M cells stably expressing full length EGFRvIII; expressed in transfected cells; host or cells: NR6 cells (NR6 M)
As to the kind of experiment: Native cell binding assay by FMAT, NR6 M cells. The following applies: total fluorescent intensity. On the procedure:
EGFRvIII peptide-OVA-Elisa positive well supernatants were analyzed for their ability to bind to the native form of EGFRvIII stably expressed on NR6 cells (NR6 M cells) (See, Batra et al. Epidermal growth factor ligand-independent, unregulated, cell-transforming potential of a naturally occurring human mutant EGFRvIII gene. Cell Growth Differ. 6(10):1251-9 (1995)). NR 6 M cells were seeded at 8000 cells per well and incubated over night in 96 well FMAT plates. Media was then removed leaving 15 μl in the well. 15 μl B-cell culture supernatants were added and 15 μl anti-human IgG Fc Cy5 at 1 μg/ml final concentration added to wells. It is then left incubated at 4° C. for 2 hours. The cells were washed with 150 μl PBS, and fixed before reading on FMAT. The results were expressed as total fluorescent intensity (Table 3.8).

B1: 139: XenoMax derived anti-EGFRvIII antibody, SEQ ID NO: 10/25 (antibody, listed as Homo sapiens, V domains shown)
VH: EVQVLESGGGLVQPGGSLRLSCAASGFTFSSYAMSWVRQAPGKGLEWVSAISGSGGSTNYADSVKGRFTISRDNSKNTLYLQMNSLRAEDTAVYYCAGSSGWSEYWGQGTLVTVSS
VL: DIQMTQSPSSLSASVGDRVTITCRASQGIRNNLAWYQQKPGKAPKRLIYAASNLQSGVPSRFTGSGSGTEFTLIVSSLQPEDFATYYCLQHHSYPLTSGGGTKVEIK
Turning to B1, the “selectivity for EGFRvIII expressing cells (H1477) as compared to ABX-EGF” value in assay [1] is listed as “superior selectivity”. For the same molecule, the “binding with the pep3” value with EGFRvIII-peptide-OVA (XenoMax approach, in words) is given as “highly specific”. Further, the “cross-reactivity with wild type EGFR” value in assay [2] (XenoMax approach, in words) is listed as “limited cross-reactivity with wild type EGFR”. In assay [3], the “FACS Geometric mean With glutathione 4° C.” value was 4.88 and the “FACS Geometric mean With glutathione 37° C.” value amounted to 19.23.

B2: 129A7: XenoMax derived anti-EGFRvIII antibody, heavy chain of 124 (SEQ ID NO: 13), light chain of 123 (SEQ ID NO: 29) (antibody, listed as Homo sapiens, V domains shown)
VH: QVQLVESGGGVVQPGRSLRLSCAASGFTLSSYGMHWVRQAPGKGLEWVAVMSYDGSKEDYADSVKGRFTISRDNSENTLYLQMNSLRAEDTAVYYCVSEGYCSSRSCYKYYYYGMDVWGQGTTVTVSS
VL: DIVMTQSPLSLPVTPGEPASISCRSSQSLLYRNGNNYLDWYLQKPGQSPQLLIYLGSNRASGVPDRFSGSGSGTDFTLNISRVEAEDVGHYYCMQALQTPRTFGQGTKVEIK
Take B2: the “OVA OD” value in the assay with OVA stood at 0.1515. Besides, in the assay with EGFRvIII-peptide-OVA (Table 3.8), the “1′ VIII-pep-OVA OD” value was 2.1501 and the “2′ VIII-pep-OVA OD” value was 2.8208. Besides, the “% internalized, (glut+/glut−) × 100” value in assay [4] (37° C. for 30 mins) was determined as 31.5%. The “With glutathione FL1xcount” value in assay [4] (37° C. for 30 mins, 50 mM glutathione) is listed as 8708. Moreover, the “No glutathione FL1xcount” value in assay [4] (kept on ice, no glutathione) was determined as 27648. The “FMAT native binding to NR6 Wt cells” value in assay [2] (total fluorescent intensity) is reported as 0. Further, the “FMAT native binding to NR6 M cells” value in assay [5] worked out at 84024.
